Laboratory results from publication PMC11674828.

Substrate: N[C@@H](CC(=O)O)C(=O)O
Test: purified protein
Conditions: pH 8.0

Row | Protein | Km [mM] | kcat [s⁻¹] | kcat/Km [M⁻¹ s⁻¹]
1 | (Corynebacterium glutamicum ATCC 13032) (protein) chain 1: MLRTILGSKIHRATVTQADLDYVG chain 2: SVTIDADLVHAAGLIEGEKVAIVDITNGARLETYVIVGDAGTGNICINGAAAHLINPGDLVIIMSYLQATDAEAKAYEPKIVHVDADNRIVALGNDLAEALPGSGLLTSRSI | 4.3 ± 0.2 | 2.8 | 650
2 | (Escherichia coli K-12) (protein) chain 1: MIRTMLQGKLHRVKVTHADLHYEG chain 2: SCAIDQDFLDAAGILENEAIDIWNVTNGKRFSTYAIAAERGSRIISVNGAAAHCASVGDIVIIASFVTMPDEEARTWRPNVAYFEGDNEMKRTAKAIPVQVA | 7.9 ± 0.1 | 1.4 | 180
3 | (Thermus thermophilus HB8) (protein) chain 1: MKRVMFHAKIHRATVTQADLHYVG chain 2: SVTVDQDLLDAAGILPFEQVDIYDITNGARLTTYALPGERGSGVIGINGAAAHLVKPGDLVILVAYGVFDEEEARNLKPTVVLVDERNRILEVRKG | 8.5 ± 0.1 | 2.2 | 260
